Reference: US6774106 (Amgen, dated 2004)

Key:
[1] = target: T1, human TACI expressed on 293 cells (phTACI vector) (human, UniProt O14836 1-293); experiment: FACS on transfected 293 cells, G70/APRIL-Flag then FITC anti-Flag antibody
T1 construct: also called hTACI gene
T1 sequence: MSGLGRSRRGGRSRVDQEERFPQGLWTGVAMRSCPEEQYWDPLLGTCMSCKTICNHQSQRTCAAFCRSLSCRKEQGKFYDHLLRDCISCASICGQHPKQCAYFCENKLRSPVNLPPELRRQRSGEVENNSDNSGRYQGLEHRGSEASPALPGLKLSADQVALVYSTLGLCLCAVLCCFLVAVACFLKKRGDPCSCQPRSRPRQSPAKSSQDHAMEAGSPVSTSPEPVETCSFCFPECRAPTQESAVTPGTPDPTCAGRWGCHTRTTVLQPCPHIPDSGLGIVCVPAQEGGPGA
Procedure: (§1) FIGS. 14A, 14B and 14C show soluble mouse G70/APRIL binding to 293 cells expressing the BCMA gene. Human 293 cells transfected with the pmBCMA and pcDNA3 vectors were incubated with G70/APRIL-Flag, followed by FITC-conjugated anti-Flag antibody staining for FACS analysis. A. 293 cells transfected with pcDNA3 vector only. B. 293 cells transfected with antisense pmBCMA vector. C. 293 cells transfected with sense pmBCMA vector.
(§2) Human 293 cells transfected with the phTACI and pcDNA3 vectors were incubated with G70/APRIL-Flag, followed by FITC-conjugated anti-Flag antibody staining for FACS analysis.

[2] = target: T2, mouse BCMA expressed on 293 cells (sense pmBCMA vector) (mouse, UniProt O88472 1-185); experiment: as above
T2 construct: also called exogenous BCMA; BCMA gene
T2 sequence: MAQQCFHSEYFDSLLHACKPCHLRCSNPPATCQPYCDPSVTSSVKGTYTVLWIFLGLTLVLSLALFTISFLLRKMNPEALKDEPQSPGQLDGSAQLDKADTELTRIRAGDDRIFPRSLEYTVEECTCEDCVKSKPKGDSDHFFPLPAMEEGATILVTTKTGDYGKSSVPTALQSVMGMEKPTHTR
Procedure: as §1, §2

B1: Soluble murine APRIL-Flag protein (FLAG-tagged soluble mouse APRIL) (ligand)
chain: MDYKDDDDKKHKKKHSVLHLVPVNITSKDSDVTEVMWQPVLRRGRGLEAQGDIVRVWDTGIYLLYSQVLFHDVTFTMGQVVSREGQGRRETLFRCIRSMPSDPDRAYNSCYSAGVFHLHQGDIITVKIPRANAKLSLSPHGTFLGFVKL
notes: also called Flag-APRIL; Flag-mAPRIL
binding result [1]: binds
binding result [2]: binds
